In patent US20240117326:

B1: M laminosus NifH (Genbank Accession No. Q47917) (protein)
chain: MTENIRQIAFYGKGGIGKSTTSQNTLAAMAEMGQRIMIVGCDPKADSTRLMLHSKAQTTVLHLAAERGAVEDLELEEVMLTGFRGVKCVESGGPEPGVGCAGRGIITAINFLEENGAYQDLDFVSYDVLGDVVCGGFAMPIREGKAQEIYIVTSGEMMAMYAANNIARGILKYAHSGGVRLGGLICNSRKVDREAELIENLAERLNTQMIHFVPRDNIVQHAELRRMTVNEYAPDSNQSQEYRALAKKIINNTKLTIPTPMEMDELEALLIEYGILDDDTKHADIIGKPAEASAK
B2: M. infernus NifH (Genbank Accession No. WP_013099459) (protein)
chain: MSFDEIAPNAKKVAIYGKGGIGKSTTTQNTAAALAYYYKLKGMIHGCDPKADSTRMILHGKPQETVMDVLREEGEEGVTLEKVRKVGFCGIYCVESGGPEPGVGCAGRGVITAVNLMKELGGYPDDLDFLFFDVLGDVVCGGFAMPLRDGLAKEIYIVSSGEMMALYAANNIAKGILKYAEQSGVRLGGIICNSRNVDGERELMEEFCDKLGTKLIHFIPRDNIVQKAEFNKMTVVEFAPDHPQALEYKKLGKKIMDNDELVIPTPLSMDELEKLVEKYGLYDK
B3: H. modesticaldum NifH (Genbank Accession No. WP_012282218) (protein)
chain: MRQIAIYGKGGIGKSTTTQNTVSALAEMGKKVMIVGCDPKADSTRLILHSKAQATVMDLAREKGTVEDLELSDVLLTGFADIRCAESGGPEPGVGCAGRGVITAINFLEENGAYTPDLDYVFYDVLGDVVCGGFAMPIRENKAQEIYIVTSGEMMAMYAANNIARGILKYASSGKVRLGGLICNSRKVDKEYELIDELATRLGTQMIHFLPRDNQVQRAELRRMTVIEYSPDHPQADEYRALAKKIDENKKLVIPTPLTMDELEDLLIQYGILEDEETAAAKLG
B4: C. tepidum NifH (Genbank Accession No. WP_010933198) (protein)
chain: MRKVAIYGKGGIGKSTTTQNTVAGLAEAGKKVMVVGCDPKADSTRLLLGGLQQKTVLDTLREEGEEVELEDIIKEGYRNTRCTESGGPEPGVGCAGRGIITSVNLLEQLGAYDDEWELDYVFYDVLGDVVCGGFAMPIRDGKAEEIYIVCSGEMMAMYAANNICKGILKYADAGGVRLGGLICNSRKVDNEREMIEELARRLGTQMIHFVPRDNFVQRAEINRKTVIDFDPTHPQADEYRALAKKIDENKMFVIPKPLEIDELESLLIEFGIAN
B5: Geobacter sp. NifH (Genbank Accession No. WP_015837436) (protein)
chain: MRQIAIYGKGGIGKSTTTQNTVAGLASIGKKVMIVGCDPKADSTRLILHAKAQSTVMDLVRELGTVEDLELEDVMKVGYGDVKCVESGGPEPGVGCAGRGVITAINFLEENGAYTPDLDFVFYDVLGDVVCGGFAMPIREGKAEEIYIVCSGEMMAMYAANNIAKGILKYATSGKVRLAGLICNARKTDKEYELIDALAKKLGTQMIHFVPRDNQVQRAELRRMTVIEYSPEHPQAQEYRTLAQKIADNKMLVVPTPLEMEELEDLLMEFGIMEAEDESIVGVAEAAAV
B6: M thermautotrophicus NifH (Genbank Accession No. AAB86034) (protein)
chain: MVRKIAIYGKGGIGKSTTQQNTAAAMSYFHGKNVMIHGCDPKADSTRLILGGKMQTTMMDTLRELGEVACTPDKVIETGFGGIKCVESGGPEPGVGCAGRGVITAITLMERHGVYEKDLDFVFFDVLGDVVCGGFAMPVRDGKAEEIYIVASGEMMALYAANNICKGMVKYARQSGVRLGGIICNSRNVDGEKELLEEFCERIGTQMIHFVPRDNIVQKAEFNKKSVIEFDPECNQSQEYRELARKIIENKDFVIPEPMTMDEMEELVVKYGVMD
B7: Carboxydothermus pertinax NifH (Genbank Accession No. WP_075859892) (protein)
chain: MTRKIAIYGKGGIGKSTTQQNTAAALAYFYGKKVLIHGCDPKADCTRLILGGKPQETVMDTMRELGEDAVTIDRVVKTGFCGIKCVESGGPEPGVGCAGRGVITAISLMEELGAYTPDLDFIFFDVLGDVVCGGFAMPVREGKAQEIYIVASGEMMALYAANNICRGMVKYAEQSGVRLGGIICNSRNVDGERELMEEFCSKIGTQMIHFIPRDNIVQKAEFNRQTVTQFDPNCNQAQEYRELARKIIENDMFVIPKPMTMDEMENLVIKYGLLE

Target: T1, NifD-NifK proteins from K. oxytoca (expressed from MIT2.1 in E. coli JM109)
T1 chain 1: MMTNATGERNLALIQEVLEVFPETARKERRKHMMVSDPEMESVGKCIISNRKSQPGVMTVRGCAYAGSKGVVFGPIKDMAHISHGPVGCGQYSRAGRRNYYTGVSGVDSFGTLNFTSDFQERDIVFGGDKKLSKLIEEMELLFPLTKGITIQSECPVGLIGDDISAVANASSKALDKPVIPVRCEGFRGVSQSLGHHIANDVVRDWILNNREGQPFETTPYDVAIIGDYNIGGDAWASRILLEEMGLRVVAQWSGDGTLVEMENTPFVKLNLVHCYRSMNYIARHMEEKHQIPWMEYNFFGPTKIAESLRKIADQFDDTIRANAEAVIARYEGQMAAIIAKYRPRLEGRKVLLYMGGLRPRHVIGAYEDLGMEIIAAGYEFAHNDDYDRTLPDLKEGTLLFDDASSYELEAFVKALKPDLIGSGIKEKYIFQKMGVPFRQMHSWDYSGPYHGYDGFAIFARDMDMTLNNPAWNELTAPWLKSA
T1 chain 2: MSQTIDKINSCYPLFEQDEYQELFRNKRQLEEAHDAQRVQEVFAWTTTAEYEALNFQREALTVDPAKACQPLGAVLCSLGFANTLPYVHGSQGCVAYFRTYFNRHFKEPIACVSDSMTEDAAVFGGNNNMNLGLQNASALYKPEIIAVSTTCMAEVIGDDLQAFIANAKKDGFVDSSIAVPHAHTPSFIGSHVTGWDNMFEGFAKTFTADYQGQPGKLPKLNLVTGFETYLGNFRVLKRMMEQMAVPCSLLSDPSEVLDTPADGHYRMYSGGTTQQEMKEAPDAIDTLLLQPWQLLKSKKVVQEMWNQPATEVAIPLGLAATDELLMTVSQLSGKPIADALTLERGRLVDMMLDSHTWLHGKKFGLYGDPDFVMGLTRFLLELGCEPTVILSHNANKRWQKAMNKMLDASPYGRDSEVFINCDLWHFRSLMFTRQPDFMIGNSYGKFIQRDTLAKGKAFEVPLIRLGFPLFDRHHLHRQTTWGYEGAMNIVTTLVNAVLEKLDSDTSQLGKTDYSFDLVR
With B1 the “acetylene reduction assay (ethylene production) in E. coli JM109 with modified MIT2.1” value (from here on “acetylene reduction assay”) was “none of the JM109 strains carrying the modified MIT2.1 plasmids with the NifH variants reduced acetylene, instead showing the same background level of ethylene production as JM109 carrying the negative control plasmid pB-ori”.
For B2, the “acetylene reduction assay” value was “none of the JM109 strains carrying the modified MIT2.1 plasmids with the NifH variants reduced acetylene, instead showing the same background level of ethylene production as JM109 carrying the negative control plasmid pB-ori”.
B3 was tested, and the “acetylene reduction assay” value was “none of the JM109 strains carrying the modified MIT2.1 plasmids with the NifH variants reduced acetylene, instead showing the same background level of ethylene production as JM109 carrying the negative control plasmid pB-ori”.
B4 was tested, and the “acetylene reduction assay” value was “none of the JM109 strains carrying the modified MIT2.1 plasmids with the NifH variants reduced acetylene, instead showing the same background level of ethylene production as JM109 carrying the negative control plasmid pB-ori”.
For B5, the “acetylene reduction assay” value was “none of the JM109 strains carrying the modified MIT2.1 plasmids with the NifH variants reduced acetylene, instead showing the same background level of ethylene production as JM109 carrying the negative control plasmid pB-ori”.
In the case of B6, the “acetylene reduction assay” value is reported as “none of the JM109 strains carrying the modified MIT2.1 plasmids with the NifH variants reduced acetylene, instead showing the same background level of ethylene production as JM109 carrying the negative control plasmid pB-ori”.
With B7 the “acetylene reduction assay” value was “none of the JM109 strains carrying the modified MIT2.1 plasmids with the NifH variants reduced acetylene, instead showing the same background level of ethylene production as JM109 carrying the negative control plasmid pB-ori”.
